According to patent US20240018254A1:

Target: FcγRIIIa-bio (UniProt P08637)
Assay: BLI (Fortebio), FcγRIIIa-bio on SA sensor, antibody 31.3-500 nM, 1:1 fit

Sequence of UniProt P08637 (P08637 17-208 limits assumed): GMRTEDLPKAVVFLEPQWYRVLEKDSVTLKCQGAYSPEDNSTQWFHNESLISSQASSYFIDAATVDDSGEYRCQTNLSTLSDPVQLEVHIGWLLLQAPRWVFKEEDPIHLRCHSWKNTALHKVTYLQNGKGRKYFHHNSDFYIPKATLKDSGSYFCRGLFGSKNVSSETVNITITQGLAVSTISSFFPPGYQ

- Kd: 141 nM
- koff: 0.0342 s⁻¹
- kon: 243000 M⁻¹ s⁻¹
Substance: MEDI9447 (Oleclumab) (antibody)
